In patent US20230212305A1 (published 2023):
Changes are numbered by the printed parent chain. One block for each binder: values may come before it.

Columns and labels:
[1] = target: T1, cynomolgus ABCG2 (Macaca fascicularis) (Macaca fascicularis (cynomolgus), UniProt Q5MB13 1-654 (rhesus entry)); experiment: flow cytometry on cells expressing cynomolgus ABCG2; paragraph 395: non-significant binding = -
T1 construct: also called cABCG2
T1 sequence: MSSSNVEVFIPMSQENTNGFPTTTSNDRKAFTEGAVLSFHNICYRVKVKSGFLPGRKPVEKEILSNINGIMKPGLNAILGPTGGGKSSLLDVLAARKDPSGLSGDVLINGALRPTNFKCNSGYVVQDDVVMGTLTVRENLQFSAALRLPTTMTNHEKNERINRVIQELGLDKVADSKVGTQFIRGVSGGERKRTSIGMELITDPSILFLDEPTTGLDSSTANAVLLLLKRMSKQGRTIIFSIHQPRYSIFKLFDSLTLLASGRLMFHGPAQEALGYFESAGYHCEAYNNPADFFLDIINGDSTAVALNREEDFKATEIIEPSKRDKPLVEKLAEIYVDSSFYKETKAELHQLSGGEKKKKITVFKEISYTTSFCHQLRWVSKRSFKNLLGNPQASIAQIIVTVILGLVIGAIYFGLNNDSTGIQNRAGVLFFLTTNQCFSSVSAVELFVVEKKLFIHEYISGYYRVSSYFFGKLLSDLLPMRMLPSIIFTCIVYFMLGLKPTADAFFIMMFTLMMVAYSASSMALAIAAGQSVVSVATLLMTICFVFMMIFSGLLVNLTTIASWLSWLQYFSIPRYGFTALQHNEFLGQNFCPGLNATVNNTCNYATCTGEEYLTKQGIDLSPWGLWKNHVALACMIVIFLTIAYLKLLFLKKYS
Procedure: (§1) Cell Binding Assays. Antibody binding to cells was evaluated by flow cytometry. […] After incubating cells on ice for 30 min, cells were washed twice with flow cytometry buffer. Bound antibody was detected with PE-labeled F(ab′)₂ fragment goat anti-human IgG (Jackson ImmunoResearch) and evaluated on an Attune NxT flow cytometer.

[2] = target: T2, human ABCG2 (human, UniProt Q9UNQ0 1-655); experiment: flow cytometry (FACS) on 293T_ABCG2_OX cells
T2 construct: also called hG2; KPG2
T2 sequence: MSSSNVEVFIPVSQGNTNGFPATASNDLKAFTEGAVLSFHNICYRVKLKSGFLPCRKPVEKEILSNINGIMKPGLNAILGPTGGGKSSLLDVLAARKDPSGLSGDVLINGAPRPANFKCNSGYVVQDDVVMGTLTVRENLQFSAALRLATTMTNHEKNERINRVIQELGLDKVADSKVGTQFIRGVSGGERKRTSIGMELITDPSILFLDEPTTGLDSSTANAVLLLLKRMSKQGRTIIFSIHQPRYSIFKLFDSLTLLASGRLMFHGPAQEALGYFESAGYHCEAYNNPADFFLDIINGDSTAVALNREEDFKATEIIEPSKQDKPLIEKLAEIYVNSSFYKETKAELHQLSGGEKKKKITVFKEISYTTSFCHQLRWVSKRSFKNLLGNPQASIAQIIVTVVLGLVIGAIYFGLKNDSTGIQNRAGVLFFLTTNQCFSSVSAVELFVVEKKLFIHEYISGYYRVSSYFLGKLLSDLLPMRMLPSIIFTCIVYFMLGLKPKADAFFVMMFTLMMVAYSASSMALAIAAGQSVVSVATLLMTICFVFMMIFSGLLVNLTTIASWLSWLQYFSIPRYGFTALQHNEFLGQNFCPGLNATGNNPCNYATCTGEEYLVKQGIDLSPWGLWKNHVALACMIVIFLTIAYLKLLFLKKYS

[3] = target: T2, human ABCG2; experiment: cell-based or functional assay
[4] = target: T1, cynomolgus ABCG2 (Macaca fascicularis); experiment: flow cytometry on cells expressing cynomolgus ABCG2
Procedure: as §1

[5] = target: T2, human ABCG2; experiment: flow cytometry titration on 293T_ABCG2_OX cells; column Affinity for human ABCG2 (nM)
Procedure: as §1

[6] = target: T1, cynomolgus ABCG2 (Macaca fascicularis); experiment: flow cytometry, 293T cells overexpressing cynomolgus ABCG2
Procedure: as §1

[7] = target: T2, human ABCG2; experiment: flow cytometry, 293T cells overexpressing human ABCG2
Procedure: as §1

binding result [1]: no binding
binding result [2]: binds
B1: G2.256 mouse (antibody, human IgG1, V domains shown)
VH: EVQLQQSGPELVKPGASLKISCKTFGYSFTGYYMHWVKQSPEKSLEWIGKIVPSTGGTTYNQKFKAKATLTVDKSSFTAYMQLKSLTSEDSAVYYCAREKVYGYDVYYFDYWGQGTTLTVSS
VL: DIVMSQSPATLSVTPGDRVSLSCRASQSISDYLHWYQQKSHESPRLLIKYASQSISGIPSRFSGSGSGSDFTLSINSVEPEDVGVYYCQNGHSFPWTFGGGTKLEIK
notes: Variable regions cloned onto human IgG1 constant heavy chain and human kappa constant light chain

binding result [4]: binds
Kd [5]: 16.8 nM
B2: G2.629 rat (antibody, human IgG1, V domains shown)
VH: EVQLVESGGGLVQPGRSLKLSCAASGFIFSRFYMAWVRQAPTKGLEWVAYINTGGGTTYYRDSVKGRFTISRDNAKTTLYLQMDSLRSEDTATYYCTTLAAPWNYVMDAWGQGASVTVSS
VL: DVVMTQSPSLLSASVGDRVTLTCKGSQNINNFLAWYQQKLGEAPKLLTYKTNSLHTGIPSRFSGSGSGTDYTLTISSLHSEDLATYYCYQYNNGYTFGPGTKLELK
notes: as for B1
IC50 of topotecan cytotoxicity in the presence of the antibody [3]: 2.21 nM

Kd [5]: 14.2 nM
B3: G2.631 rat (antibody, human IgG1, V domains shown)
VH: EVKLLESGGGLVQSGRSLKLSCAASGFIFSRFYMAWVRQAPRKGLEWVAYISNGAGSTYYRESVKGRFIISRDNAKSTLYLQMDSLRSEDTATYYCTTVAAPWNYVMDGWGQGASVTVSS
VL: B2 VL with D1N, V2I, V3Q, M4I, T22S, F32Y, T48I, P99A
notes: also called G.631
IC50 of topotecan cytotoxicity in the presence of the antibody [3]: 1.42 nM

binding result [4]: binds
Kd [5]: 17 nM
B4: G2.636 rat (antibody, human IgG1, V domains shown)
VH: EVKLVESGGGLVQPGRSLKLSCAASGFTFSRFYMAWVRQAPTKGLEWVAHISHGGDTTYYRDSVKGRFTISRDNAKSTLFLQMDSLRSEDTATYYCTTSAAPWNYVMDGWGLGASVTVSS
VL: B2 VL with V2I, T48I, P99A
notes: as for B1
IC50 of topotecan cytotoxicity in the presence of the antibody [3]: 0.45 nM

binding result [4]: binds
Kd [5]: 23 nM
B5: G2.641 rat (antibody, human IgG1, V domains shown)
VH: B4 VH with V5E
VL: B2 VL with V2I, V3Q, T48I, P99A
notes: as for B1
IC50 of topotecan cytotoxicity in the presence of the antibody [3]: 1.04 nM

binding result [6]: binds
binding result [7]: binds
B6: G2.760 rat (antibody, human IgG1, V domains shown)
VH: EVQLVESGGGLVQPGRSMKLSCAASGFTFSKSDMAWVRQAPTKGLKWVASIRYDGGNTYYRDSVRGRFTISRDNAKSTLYLQMDSLRSEDTATYYCSTAKAAISTPSYYVLDAWGQGASVTVSS
VL: DIGMTQSPTSMSKSVGDRVTMNCKASQNVGSNVDWFQQKTGQSPKLLIYKSSNRYTGVPARFTGSGSGTDFTFTISNMQAEDLAVYYCMQSNSYPPTFGGGTKLELK

binding result [6]: binds
binding result [7]: binds
B7: G2.643 mouse (antibody, human IgG1, V domains shown)
VH: VNLVESGPELVKPGTSVKISCKASGYRFTSYYVHWVKQRPGQGLEWIGWIFPGSDNTKYNEKFKGKATLTADTSSSTAYMQLSSLTSEDSAVYFCASIYYGYDGTLYFDYWGQGTSVTVSS
VL: DIVMTQSHTFMSTSVGDRVSVTCKASQNVGNNVAWYQQKPGQSPNALIYSASYRYSGVPDRFTGSGSGTDFTLTISNVQSEDLAEYFCQQYDRYPLTFGGGTKLEIK
notes: Recombinant antibody

binding result [6]: binds
binding result [7]: binds
B8: G2.748 rat (antibody, V domains shown)
VH: QVSLKESGPGMLQPSKTLSLTCSFSGFSLSTSGMVVNWIRQPSGKSLEWLAAIDWDGDKYYNPSLKHRLTVSKDTSNTQVVLKITSVDTADTATYYCARSIAPYRGWFGYWGQGTLVTVSS
VL: EIVLIQSPSSLPASLGERVTIICRASQDIGNNLNWYQQKPDGTIKPLIYFTSNFQSGVPSSFSGSRSGTDFSLTISSLEAEDFAMYYCQQDASLPWTFGGGTKLEIK

Kd [5]: 5 nM
B9: anti-ABCG2 antibody 5D3 (antibody, V domains shown)
VH: QVQLQESGPGLVKPSQSLSLTCTVTGFSITSDYAWNWIRQFPGKKLEWMGYINFDGGTTYNPSLRGRISITRDTSKNQFFLQLRSVTPEDTATYYCATFYGAKGTLDYWGQGTSVTVSS
VL: DIVLTQSPSSFSVSLGDRVTISCKASGYILNRLAWYQQKPGNAPRLLISGATSLETGFPSRFSGTGSGKDYTLSISSLQTEDVGTYYCQQYWSTPWTFGGGTKLEIK
notes: also called clone 5D3
IC50 of topotecan cytotoxicity in the presence of the antibody [3]: 0.3 nM

binding result [1]: no binding
Kd [5]: 363 nM
B10: G2.255 mouse (antibody, human IgG1, V domains shown)
VH: EVMLVESGGALVKPGGSLKLSCAASGFTFSNNAMSWVRQTPETRLEWVATITGGGSYTYYPDSVKGRFTISRDNARNTLYLQMSSLRSEDTATYYCASPDGNYEGVLAYWGQGTLVTVSA
VL: DIQMNQSPSSLSASLGDRVTISCSASQGISNYLNWYQQKPDGTIKLLIYYTSTLHSGVPSRFSGSGSGTDYSLTISNLEPEDIATYYCQHYSSLPWTFGGGTKLEIK
notes: as for B1

binding result [6]: no binding
binding result [7]: no binding
B11: G2.640 (antibody, human IgG1, V domains shown)
VH: EVKLEESGPGLVQPSQTLSLTCTVSGFSLTSDGVSWVRQPPGKGLEWIAAISSGGSTYYNSALKSRLSISRDTSKSQVFLKMNSLQTEDTAIYFCTRDTYYGYNQIPFVYWGQGTLVTVSS
VL: DIVIIQSPPSLSASLGDKVTISCQASQNIHRYIAWYQQKPGKAPRLLIRYTSTLESGTPSRFSGSGSGRDYSFSISNVESEDIASYYCLQYVNLWTFGGGTKLELK
notes: Raised in rats
IC50 of topotecan cytotoxicity in the presence of the antibody [3]: 6.9 nM

binding result [1]: no binding
Kd [5]: 48 nM
B12: G2.642 rat (antibody, human IgG1, V domains shown)
VH: QIQLVQSGAELVKPGASVKLSCKTSGFTFSSNYISWLRQKPRQSLEWIAWIYSGTGGTYYNQKFTGKAQLTIDTSSNTAYMQLSSLTSEDSAIYYCARHVGLRYWYFDVWGAGTSVTVSS
VL: DIVLTQSPASLTVSLGQRATISCRASESVDSNGNSFMHWYQQKPGQSPKVLIYRASNLESGVPARFSGSGSRTDFTLTINPVEADDVATYYCQQSNEDPWTFGGGTKLEIKR
IC50 of topotecan cytotoxicity in the presence of the antibody [3]: 9.08 nM
